Among the data in article PMC10945275 are EC50 values, retold here.

Targets include wild-type EGF receptor (UniProt P00533); R84K-EGF receptor (UniProt P00533); A265V-EGF receptor (UniProt P00533); G574V-EGF receptor (UniProt P00533).
Common to all, as to experiment: radioligand binding

In the case of 125I-EGF (ligand), the EC50 (usually the concentration that produces a half-maximal response) in the assay with wild-type EGF receptor amounted to 750 pM; in the assay with R84K-EGF receptor, 36 pM; in the assay with A265V-EGF receptor, 280 pM; in the assay with G574V-EGF receptor it was 170 pM.
